From PMC5966361, “Ligand binding and conformational changes of SUR1 subunit in pancreatic ATP-sensitive potassium channels” (Protein & Cell, 2018)

Assays:
[1] = molecular target: SUR1-Kir6.2 fusion construct with a 39-residue linker (Mesocricetus auratus | Mus musculus); test: SEC; screening of fusion constructs: cleared lysate of transfected FreeStyle 293-F cells solubilised in 20 mmol/L HEPES pH 8.0, 120 mmol/L KCl, 1% digitonin, loaded onto a Superose 6 increase column
[2] = molecular target: the molecule itself; test: cryo-EM structure; Mg-ADP state: purified fusion channel in 20 mmol/L HEPES pH 8.0, 120 mmol/L KCl, 0.1% digitonin, with 2.5 mmol/L MgCl2, 1 mmol/L ADP, 400 μmol/L 08:0 PI(4,5)P2, 500 μmol/L NN414 and 1 mmol/L Na3VO4; C4 symmetry

| stoichiometry N [1] | Molecule | stoichiometry N [2] |
| --- | --- | --- |
| 4 | SUR1-Kir6.2 fusion construct with a 39-residue linker (complex) |  |
|  | Kir6.2 (inward-rectifying potassium channel 6.2) subunit, as part of the SUR1-Kir6.2 fusion construct (natural protein, Mus musculus, Kir6.2 from Mus musculus (Woo et al., 2013); In the assay it stood as the C-terminal part of the fusion chain of m1; its N-terminus is joined through the 39-residue linker to the C-terminus of SUR1, so it has no free native N-terminus; The linker and the Kir6.2 N-terminus are disordered in the maps; also called mmKir6.2; source: FreeStyle 293-F cells, BacMam system, purified as part of the fusion …) MLSRKGIIPEEYVLTRLAEDPAEPRYRTRERRARFVSKKGNCNVAHKNIREQGRFLQDVFTTLVDLKWPHTLLIFTMSFLCSWLLFAMVWWLIAFAHGDLAPGEGTNVPCVTSIHSFSSAFLFSIEVQVTIGFGGRMVTEECPLAILILIVQNIVGLMINAIMLGCIFMKTAQAHRRAETLIFSKHAVITLRHGRLCFMLRVGDLRKSMIISATIHMQVVRKTTSPEGEVVPLHQVDIPMENGVGGNGIFLVAPLIIYHVIDSNSPLYDLAPSDLHHHQDLEIIVILEGVVETTGITTQARTSYLADEILWGQRFVPIVAEEDGRYSVDYSKFGNTIKVPTPLCTARQLDEDRSLLDALTLASSRGPLRKRSVAVAKAKPKFSISPDSLS | 4 |
